# Measurements taken from patent US20160272693A1 (ZEALAND PHARMA A S, published 2016).
# *1 amine or outer side, *2 acyl side, *3 side chain or, on linkers, in order; H or OH if unused. Bridges are numbered along the chain shown (N, C = ends). [ ]: non-standard residue; d: D form. The star is where a group is joined. C20 diacid = O=C(O)CCCCCCCCCCCCCCCCCCC(=O)*; γGlu = O=C(O)[C@H](CCC(=O)[*:2])N[*:1]; Hyp = O=C(O)[C@@H]1C[C@@H](O)CN1; NMeI = CC[C@H](C)[C@H](NC)C(=O)O; Sar = CNCC(=O)O
# B1: [19CD]-isoGlu-R-C( )-NTAT-C( )-ATQRLADFLQRSSF-Gly(Me)-A-Ile(Me)-LSSTEVGSNTP-NH2 (Compd. 65) (peptide)
# peptide: {C20 diacid-γGlu}-RCNTATCATQRLADFLQRSSF[Sar]A[NMeI]LSSTEVGSNTP-NH2
# modifications: disulfide 2-7
# SMILES: CC[C@H](C)[C@@H](C(=O)N[C@@H](CC(C)C)C(=O)N[C@@H](CO)C(=O)N[C@@H](CO)C(=O)N[C@H](C(=O)N[C@@H](CCC(=O)O)C(=O)N[C@H](C(=O)NCC(=O)N[C@@H](CO)C(=O)N[C@@H](CC(N)=O)C(=O)N[C@H](C(=O)N1CCC[C@H]1C(N)=O)[C@@H](C)O)C(C)C)[C@@H](C)O)N(C)C(=O)[C@H](C)NC(=O)CN(C)C(=O)[C@H](Cc1ccccc1)NC(=O)[C@H](CO)NC(=O)[C@H](CO)NC(=O)[C@H](CCCNC(=N)N)NC(=O)[C@H](CCC(N)=O)NC(=O)[C@H](CC(C)C)NC(=O)[C@H](Cc1ccccc1)NC(=O)[C@H](CC(=O)O)NC(=O)[C@H](C)NC(=O)[C@H](CC(C)C)NC(=O)[C@H](CCCNC(=N)N)NC(=O)[C@H](CCC(N)=O)NC(=O)[C@@H](NC(=O)[C@H](C)NC(=O)[C@@H]1CSSC[C@H](NC(=O)[C@H](CCCNC(=N)N)NC(=O)CC[C@H](NC(=O)CCCCCCCCCCCCCCCCCCC(=O)O)C(=O)O)C(=O)N[C@@H](CC(N)=O)C(=O)N[C@@H]([C@@H](C)O)C(=O)N[C@@H](C)C(=O)N[C@@H]([C@@H](C)O)C(=O)N1)[C@@H](C)O
# B2: [19CD]-isoGlu-R-C( )-NTAT-C( )-ATERLADFLQRSSF-Gly(Me)-A-Ile(Me)-LSSTEVGSNTP-NH2 (Compd. 66) (peptide)
# peptide: {C20 diacid-γGlu}-RCNTATCATERLADFLQRSSF[Sar]A[NMeI]LSSTEVGSNTP-NH2
# modifications: disulfide 2-7
# SMILES: CC[C@H](C)[C@@H](C(=O)N[C@@H](CC(C)C)C(=O)N[C@@H](CO)C(=O)N[C@@H](CO)C(=O)N[C@H](C(=O)N[C@@H](CCC(=O)O)C(=O)N[C@H](C(=O)NCC(=O)N[C@@H](CO)C(=O)N[C@@H](CC(N)=O)C(=O)N[C@H](C(=O)N1CCC[C@H]1C(N)=O)[C@@H](C)O)C(C)C)[C@@H](C)O)N(C)C(=O)[C@H](C)NC(=O)CN(C)C(=O)[C@H](Cc1ccccc1)NC(=O)[C@H](CO)NC(=O)[C@H](CO)NC(=O)[C@H](CCCNC(=N)N)NC(=O)[C@H](CCC(N)=O)NC(=O)[C@H](CC(C)C)NC(=O)[C@H](Cc1ccccc1)NC(=O)[C@H](CC(=O)O)NC(=O)[C@H](C)NC(=O)[C@H](CC(C)C)NC(=O)[C@H](CCCNC(=N)N)NC(=O)[C@H](CCC(=O)O)NC(=O)[C@@H](NC(=O)[C@H](C)NC(=O)[C@@H]1CSSC[C@H](NC(=O)[C@H](CCCNC(=N)N)NC(=O)CC[C@H](NC(=O)CCCCCCCCCCCCCCCCCCC(=O)O)C(=O)O)C(=O)N[C@@H](CC(N)=O)C(=O)N[C@@H]([C@@H](C)O)C(=O)N[C@@H](C)C(=O)N[C@@H]([C@@H](C)O)C(=O)N1)[C@@H](C)O
# B3: [19CD]-isoGlu-R-C( )-PTAT-C( )-ATERLADFLQRSSF-Gly(Me)-A-Ile(Me)-LSSTEVGSNTP-NH2 (Compd. 67) (peptide)
# peptide: {C20 diacid}-[γGlu]RCPTATCATERLADFLQRSSF[Sar]A[NMeI]LSSTEVGSNTP-NH2
# modifications: disulfide 3-8
# SMILES: CC[C@H](C)[C@@H](C(=O)N[C@@H](CC(C)C)C(=O)N[C@@H](CO)C(=O)N[C@@H](CO)C(=O)N[C@H](C(=O)N[C@@H](CCC(=O)O)C(=O)N[C@H](C(=O)NCC(=O)N[C@@H](CO)C(=O)N[C@@H](CC(N)=O)C(=O)N[C@H](C(=O)N1CCC[C@H]1C(N)=O)[C@@H](C)O)C(C)C)[C@@H](C)O)N(C)C(=O)[C@H](C)NC(=O)CN(C)C(=O)[C@H](Cc1ccccc1)NC(=O)[C@H](CO)NC(=O)[C@H](CO)NC(=O)[C@H](CCCNC(=N)N)NC(=O)[C@H](CCC(N)=O)NC(=O)[C@H](CC(C)C)NC(=O)[C@H](Cc1ccccc1)NC(=O)[C@H](CC(=O)O)NC(=O)[C@H](C)NC(=O)[C@H](CC(C)C)NC(=O)[C@H](CCCNC(=N)N)NC(=O)[C@H](CCC(=O)O)NC(=O)[C@@H](NC(=O)[C@H](C)NC(=O)[C@@H]1CSSC[C@H](NC(=O)[C@H](CCCNC(=N)N)NC(=O)CC[C@H](NC(=O)CCCCCCCCCCCCCCCCCCC(=O)O)C(=O)O)C(=O)N2CCC[C@H]2C(=O)N[C@@H]([C@@H](C)O)C(=O)N[C@@H](C)C(=O)N[C@@H]([C@@H](C)O)C(=O)N1)[C@@H](C)O
# B4: [19CD]-isoGlu-R-C( )-NTAT-C( )-ATERLADFLQRSSF-Gly(Me)-A-Ile(Me)-LSSTEVGSNT-Hyp-NH2 (Compd. 68) (peptide)
# peptide: {C20 diacid-γGlu}-RCNTATCATERLADFLQRSSF[Sar]A[NMeI]LSSTEVGSNT[Hyp]-NH2
# modifications: disulfide 2-7
# SMILES: CC[C@H](C)[C@@H](C(=O)N[C@@H](CC(C)C)C(=O)N[C@@H](CO)C(=O)N[C@@H](CO)C(=O)N[C@H](C(=O)N[C@@H](CCC(=O)O)C(=O)N[C@H](C(=O)NCC(=O)N[C@@H](CO)C(=O)N[C@@H](CC(N)=O)C(=O)N[C@H](C(=O)N1C[C@H](O)C[C@H]1C(N)=O)[C@@H](C)O)C(C)C)[C@@H](C)O)N(C)C(=O)[C@H](C)NC(=O)CN(C)C(=O)[C@H](Cc1ccccc1)NC(=O)[C@H](CO)NC(=O)[C@H](CO)NC(=O)[C@H](CCCNC(=N)N)NC(=O)[C@H](CCC(N)=O)NC(=O)[C@H](CC(C)C)NC(=O)[C@H](Cc1ccccc1)NC(=O)[C@H](CC(=O)O)NC(=O)[C@H](C)NC(=O)[C@H](CC(C)C)NC(=O)[C@H](CCCNC(=N)N)NC(=O)[C@H](CCC(=O)O)NC(=O)[C@@H](NC(=O)[C@H](C)NC(=O)[C@@H]1CSSC[C@H](NC(=O)[C@H](CCCNC(=N)N)NC(=O)CC[C@H](NC(=O)CCCCCCCCCCCCCCCCCCC(=O)O)C(=O)O)C(=O)N[C@@H](CC(N)=O)C(=O)N[C@@H]([C@@H](C)O)C(=O)N[C@@H](C)C(=O)N[C@@H]([C@@H](C)O)C(=O)N1)[C@@H](C)O
# B5: [19CD]-isoGlu-R-C( )-NTAT-C( )-ATQRLAHFLQRSSF-Gly(Me)-A-Ile(Me)-LSSTEVGSST-Hyp-NH2 (Compd. 69) (peptide)
# peptide: {C20 diacid}-[γGlu]RCNTATCATQRLAHFLQRSSF[Sar]A[NMeI]LSSTEVGSST[Hyp]-NH2
# modifications: disulfide 3-8
# SMILES: CC[C@H](C)[C@@H](C(=O)N[C@@H](CC(C)C)C(=O)N[C@@H](CO)C(=O)N[C@@H](CO)C(=O)N[C@H](C(=O)N[C@@H](CCC(=O)O)C(=O)N[C@H](C(=O)NCC(=O)N[C@@H](CO)C(=O)N[C@@H](CO)C(=O)N[C@H](C(=O)N1C[C@H](O)C[C@H]1C(N)=O)[C@@H](C)O)C(C)C)[C@@H](C)O)N(C)C(=O)[C@H](C)NC(=O)CN(C)C(=O)[C@H](Cc1ccccc1)NC(=O)[C@H](CO)NC(=O)[C@H](CO)NC(=O)[C@H](CCCNC(=N)N)NC(=O)[C@H](CCC(N)=O)NC(=O)[C@H](CC(C)C)NC(=O)[C@H](Cc1ccccc1)NC(=O)[C@H](Cc1c[nH]cn1)NC(=O)[C@H](C)NC(=O)[C@H](CC(C)C)NC(=O)[C@H](CCCNC(=N)N)NC(=O)[C@H](CCC(N)=O)NC(=O)[C@@H](NC(=O)[C@H](C)NC(=O)[C@@H]1CSSC[C@H](NC(=O)[C@H](CCCNC(=N)N)NC(=O)CC[C@H](NC(=O)CCCCCCCCCCCCCCCCCCC(=O)O)C(=O)O)C(=O)N[C@@H](CC(N)=O)C(=O)N[C@@H]([C@@H](C)O)C(=O)N[C@@H](C)C(=O)N[C@@H]([C@@H](C)O)C(=O)N1)[C@@H](C)O
# B6: [19CD]-isoGlu-R-C( )-GTAT-C( )-ATERLAHFLQRSSF-Gly(Me)-A-Ile(Me)-LSSTEVGSNT-Hyp-NH2 (Compd. 7) (peptide)
# peptide: {C20 diacid}-[γGlu]RCGTATCATERLAHFLQRSSF[Sar]A[NMeI]LSSTEVGSNT[Hyp]-NH2
# modifications: disulfide 3-8
# SMILES: CC[C@H](C)[C@@H](C(=O)N[C@@H](CC(C)C)C(=O)N[C@@H](CO)C(=O)N[C@@H](CO)C(=O)N[C@H](C(=O)N[C@@H](CCC(=O)O)C(=O)N[C@H](C(=O)NCC(=O)N[C@@H](CO)C(=O)N[C@@H](CC(N)=O)C(=O)N[C@H](C(=O)N1C[C@H](O)C[C@H]1C(N)=O)[C@@H](C)O)C(C)C)[C@@H](C)O)N(C)C(=O)[C@H](C)NC(=O)CN(C)C(=O)[C@H](Cc1ccccc1)NC(=O)[C@H](CO)NC(=O)[C@H](CO)NC(=O)[C@H](CCCNC(=N)N)NC(=O)[C@H](CCC(N)=O)NC(=O)[C@H](CC(C)C)NC(=O)[C@H](Cc1ccccc1)NC(=O)[C@H](Cc1c[nH]cn1)NC(=O)[C@H](C)NC(=O)[C@H](CC(C)C)NC(=O)[C@H](CCCNC(=N)N)NC(=O)[C@H](CCC(=O)O)NC(=O)[C@@H](NC(=O)[C@H](C)NC(=O)[C@@H]1CSSC[C@H](NC(=O)[C@H](CCCNC(=N)N)NC(=O)CC[C@H](NC(=O)CCCCCCCCCCCCCCCCCCC(=O)O)C(=O)O)C(=O)NCC(=O)N[C@@H]([C@@H](C)O)C(=O)N[C@@H](C)C(=O)N[C@@H]([C@@H](C)O)C(=O)N1)[C@@H](C)O
# B7: [19CD]-isoGlu-R-C( )-PTAT-C( )-ATERLAHFLQRSSF-Gly(Me)-A-Ile(Me)-LSSTEVGSST-Hyp-NH2 (Compd. 70) (peptide)
# peptide: {C20 diacid}-[γGlu]RCPTATCATERLAHFLQRSSF[Sar]A[NMeI]LSSTEVGSST[Hyp]-NH2
# modifications: disulfide 3-8
# SMILES: CC[C@H](C)[C@@H](C(=O)N[C@@H](CC(C)C)C(=O)N[C@@H](CO)C(=O)N[C@@H](CO)C(=O)N[C@H](C(=O)N[C@@H](CCC(=O)O)C(=O)N[C@H](C(=O)NCC(=O)N[C@@H](CO)C(=O)N[C@@H](CO)C(=O)N[C@H](C(=O)N1C[C@H](O)C[C@H]1C(N)=O)[C@@H](C)O)C(C)C)[C@@H](C)O)N(C)C(=O)[C@H](C)NC(=O)CN(C)C(=O)[C@H](Cc1ccccc1)NC(=O)[C@H](CO)NC(=O)[C@H](CO)NC(=O)[C@H](CCCNC(=N)N)NC(=O)[C@H](CCC(N)=O)NC(=O)[C@H](CC(C)C)NC(=O)[C@H](Cc1ccccc1)NC(=O)[C@H](Cc1c[nH]cn1)NC(=O)[C@H](C)NC(=O)[C@H](CC(C)C)NC(=O)[C@H](CCCNC(=N)N)NC(=O)[C@H](CCC(=O)O)NC(=O)[C@@H](NC(=O)[C@H](C)NC(=O)[C@@H]1CSSC[C@H](NC(=O)[C@H](CCCNC(=N)N)NC(=O)CC[C@H](NC(=O)CCCCCCCCCCCCCCCCCCC(=O)O)C(=O)O)C(=O)N2CCC[C@H]2C(=O)N[C@@H]([C@@H](C)O)C(=O)N[C@@H](C)C(=O)N[C@@H]([C@@H](C)O)C(=O)N1)[C@@H](C)O
# Target: T1, human amylin receptor 3 (hAMYR3), hCTR2 co-expressed with human receptor activity modifying protein 3 (hRAMP3) (human, UniProt P30988 25-474; O60896 24-148)
# T1 sequence (looked up) 1: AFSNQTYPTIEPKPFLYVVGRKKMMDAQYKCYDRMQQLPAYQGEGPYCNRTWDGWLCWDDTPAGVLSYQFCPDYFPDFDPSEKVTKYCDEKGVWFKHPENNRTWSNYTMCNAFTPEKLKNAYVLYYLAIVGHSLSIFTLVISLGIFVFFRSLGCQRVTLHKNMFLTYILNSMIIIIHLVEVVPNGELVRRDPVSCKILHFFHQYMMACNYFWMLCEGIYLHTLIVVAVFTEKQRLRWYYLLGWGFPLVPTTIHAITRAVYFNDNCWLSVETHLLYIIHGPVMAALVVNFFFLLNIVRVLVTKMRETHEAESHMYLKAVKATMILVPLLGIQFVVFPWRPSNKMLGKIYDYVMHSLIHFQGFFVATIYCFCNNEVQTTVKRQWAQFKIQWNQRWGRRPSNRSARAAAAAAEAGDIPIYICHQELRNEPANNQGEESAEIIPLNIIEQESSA
# T1 sequence (looked up) 2: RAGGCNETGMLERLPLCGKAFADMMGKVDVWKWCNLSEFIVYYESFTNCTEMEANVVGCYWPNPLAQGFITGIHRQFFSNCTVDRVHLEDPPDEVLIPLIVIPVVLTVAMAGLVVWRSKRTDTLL
# Experiment: cell-based or functional assay
row,Binder,hAMYR3 EC50 (nM); cAMP induction [nM]
1,B1,0.26
2,B2,0.3
3,B3,0.65
4,B4,0.29
5,B5,0.17
6,B6,0.34
7,B7,0.36
